B1: Cullin-3A (Arabidopsis thaliana (Mouse-ear cress)), Q9ZVH4 (parent)
chain: MSNQKKRNFQIEAFKHRVVVDPKYADKTWQILERAIHQIYNQDASGLSFEELYRNAYNMVLHKFGEKLYTGFIATMTSHLKEKSKLIEAAQGGSFLEELNKKWNEHNKALEMIRDILMYMDRTYIESTKKTHVHPMGLNLWRDNVVHFTKIHTRLLNTLLDLVQKERIGEVIDRGLMRNVIKMFMDLGESVYQEDFEKPFLDASSEFYKVESQEFIESCDCGDYLKKSEKRLTEEIERVAHYLDAKSEEKITSVVEKEMIANHMQRLVHMENSGLVNMLLNDKYEDLGRMYNLFRRVTNGLVTVRDVMTSHLREMGKQLVTDPEKSKDPVEFVQRLLDERDKYDKIINTAFGNDKTFQNALNSSFEYFINLNARSPEFISLFVDDKLRKGLKGITDVDVEVILDKVMMLFRYLQEKDVFEKYYKQHLAKRLLSGKTVSDDAERSLIVKLKTECGYQFTSKLEGMFTDMKTSEDTMRGFYGSHPELSEGPTLIVQVLTTGSWPTQPAVPCNLPAEVSVLCEKFRSYYLGTHTGRRLSWQTNMGTADIKAIFGKGQKHELNVSTFQMCVLMLFNNSDRLSYKEIEQATEIPAADLKRCLQSLACVKGKNVIKKEPMSKDIGEEDLFVVNDKFTSKFYKVKIGTVVAQKETEPEKQETRQRVEEDRKPQIEAAIVRIMKSRKILDHNNIIAEVTKQLQPRFLANPTEIKKRIESLIERDFLERDSTDRKLYRYLA
partner: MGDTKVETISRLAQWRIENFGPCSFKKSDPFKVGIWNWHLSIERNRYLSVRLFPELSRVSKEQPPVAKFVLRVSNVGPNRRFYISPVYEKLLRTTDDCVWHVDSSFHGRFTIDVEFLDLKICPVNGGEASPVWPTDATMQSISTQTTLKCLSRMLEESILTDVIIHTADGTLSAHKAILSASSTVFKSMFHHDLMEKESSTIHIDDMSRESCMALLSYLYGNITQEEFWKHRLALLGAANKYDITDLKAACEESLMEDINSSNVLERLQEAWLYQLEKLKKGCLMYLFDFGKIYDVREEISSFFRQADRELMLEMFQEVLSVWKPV
B2: BTB/POZ domain-containing protein At1g21780 (Arabidopsis thaliana (Mouse-ear cress)), Q9XHZ8 (parent)
chain: B1 partner
partner: B1 chain

Variants of: B1
Details: with y1178, Q9XHZ8

Variant	effect of a mutation on the interaction
S48A	decreasing interaction
F49A	decreasing interaction

Variants of: B2
Details: with cul3a_arath CUL3A, Q9ZVH4

Variant	effect of a mutation on the interaction
I204R	decreasing interaction
Y242A	decreasing interaction
